Test results: paper PMC8892012

molecular target: arrestin-3 fused to Renilla luciferase (UniProt P32121); assay: BRET arrestin-3 interaction assay; conditions: maximal zaprinast-stimulated BRET; receptor-eYFP co-transfected with arrestin-3-Renilla luciferase; n = 3, ± SD; parent: est. 100; read off a plot
Chain of UniProt P32121 (P32121 whole entry, the tested form may be a part): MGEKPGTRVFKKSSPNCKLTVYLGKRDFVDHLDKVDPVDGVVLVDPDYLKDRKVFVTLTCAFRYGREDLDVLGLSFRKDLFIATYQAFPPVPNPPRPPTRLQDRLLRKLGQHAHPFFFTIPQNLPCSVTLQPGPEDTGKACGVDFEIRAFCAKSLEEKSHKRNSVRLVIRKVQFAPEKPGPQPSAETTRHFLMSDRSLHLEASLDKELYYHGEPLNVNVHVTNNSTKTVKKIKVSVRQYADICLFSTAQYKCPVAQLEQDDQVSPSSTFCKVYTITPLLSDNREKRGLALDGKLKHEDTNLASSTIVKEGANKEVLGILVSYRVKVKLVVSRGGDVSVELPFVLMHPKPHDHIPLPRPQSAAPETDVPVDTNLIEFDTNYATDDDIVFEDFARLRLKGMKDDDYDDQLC

Row | percent of parent (% WT response) | Substance
1 | 125 | rGPR35-eYFP S286A
2 | 10 | rGPR35-eYFP S297A; T300A
3 | 7 | rGPR35-eYFP S286A; T290A; S291A; S292A; T293A; S297A; T300A; S302A; S304A; T306A
4 | 83 | rGPR35-eYFP T290A; S291A; S292A; T293A
5 | 33 | rGPR35-eYFP S302A; S304A; T306A
